Values belong to the binder of their own block, whether it stands above or below them.
Experiments:
human RANK-Fc [1] = molecular target: T1, human RANK-Fc (human, UniProt Q9Y6Q6 30-212); assay: SPR (Biacore), hRANK-Fc captured on protein A at 40 RU, 37 C, 1:1 Langmuir fit
T1 construct: also called hRANK-Fc; hRANK-FC; not shown: Fc part of the bought fusion; not described
T1 sequence (looked up): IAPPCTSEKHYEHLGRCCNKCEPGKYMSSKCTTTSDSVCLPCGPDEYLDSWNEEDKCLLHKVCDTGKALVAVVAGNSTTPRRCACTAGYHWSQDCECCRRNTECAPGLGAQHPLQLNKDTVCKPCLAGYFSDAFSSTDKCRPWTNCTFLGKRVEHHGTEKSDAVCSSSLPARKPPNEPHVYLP
Protocol: (§1) A Biacore experiment was performed to determine the kinetics of binding of the dimeric variants. hRANK-FC (Sigma) was captured in flow cell 2 at a level of 40 RU by a 60 s injection pulse of a 0.7 ug/ml hRANK-FC solution at a flow rate of 50 uL/min. Flow cell 1 served as reference cell. Subsequently, serial dilutions ranging from 562 nM to 100 pM of murine RANKL wt (R&D systems), or the purified RANKL dimers mD1 and mD2 were injected over both flow cells at 50 uL/min and 37° C. Binding was measured in real time. After each cycle the protein A surface was regenerated with a 30 s pulse of 10 mM Glycine pH 1.5. Kd values were calculated by fitting the data to a langmuir 1:1 binding model using the BIAevaluation software as described before (30). (Table 6 and FIG. 6).
(§2) Kinetic binding parameters were measured in real time using SPR. RANKL dimer binding curves were recorded using concentrations ranging from 100 pM to 562 nM dimer 1 (mD1) or dimer 2 (mD2), trimeric murine wild-type RANKL was used as a control. Measurements were performed at 37° C. The dissociation constants (KD) were determined by fitting the data to a Langmuir 1:1 interaction model. […] The binding off-rate constant (koff) of wild-type murine RANKL was ˜2 to 6 fold slower than for dimer 1 and dimer 2.

murine RANK-Fc [2] = molecular target: T2, murine RANK-Fc (mouse, UniProt O35305 31-214); assay: ELISA, immobilized mRANK-Fc, % binding normalised to the highest concentration
T2 construct: also called mRANK-Fc; mRANK-FC; not shown: Fc part of the bought fusion; not described
T2 sequence (looked up): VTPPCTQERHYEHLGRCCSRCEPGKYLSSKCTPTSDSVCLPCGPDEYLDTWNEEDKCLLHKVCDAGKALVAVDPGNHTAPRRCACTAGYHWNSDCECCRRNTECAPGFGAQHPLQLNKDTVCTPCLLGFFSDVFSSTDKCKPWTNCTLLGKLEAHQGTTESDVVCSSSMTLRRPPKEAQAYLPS

murine RANK-Fc [3] = molecular target: T2, murine RANK-Fc; assay: competitive ELISA on RANK-Fc coated wells, competitor flag-mRANKL (0-53 nM), anti-flag detection, global four parameter fit
Protocol: (§3) The ability of dimer 1 and dimer 2 to compete with wild-type murine RANKL for binding to mRANK was investigated using a competitive ELISA. […] After washing off unbound RANKL, mRANK bound flag-mRANKL was detected by an anti-flag antibody. A RANKL dimer concentration dependant decrease in mRANK binding and right shift in the EC₅₀ of flag-mRANKL was observed (FIGS. 7 and 18B), indicating a competitive inhibition based mechanism. IC₅₀ values for dimer 1 and dimer 2 were calculated to be 4 nM by a global fit of the individual dose response curves using a four parameter logistic model.

human RANK-Fc [4] = molecular target: T1, human RANK-Fc; assay: SPR on hRANK-Fc, 37 C
Protocol: as §1, §2

murine RANK-Fc [5] = molecular target: T2, murine RANK-Fc; assay: competitive ELISA on mRANK-Fc coated wells, competitor 2 nM flag-mRANKL WT, anti-flag detection
Protocol: The ability of mD1 and mD2 to compete with mRANKL WT for binding to mRANK-Fc was investigated using a competitive ELISA. Serial dilutions of mD1 or mD2 (0-400 nM) and a fixed concentration (2 nM) of flag-mRANKL WT were added to mRANK-Fc coated wells. A dose-dependent decrease of flag-mRANKL WT binding was observed upon increasing concentrations of mD1 and mD2 (FIG. 18A).

murine RANK-Fc [6] = molecular target: T2, murine RANK-Fc; assay: ELISA dose response on RANK-Fc coated wells, global four parameter logistic fit
Protocol: as §3
As the concentration of flagRANKL WT used in the competitive ELISA was above its KD for mRANK-Fc, for mD2 also an EC₅₀ shift experiment was performed. A dose-response curve of 0-50 nM flagRANKL WT binding to RANK-Fc was recorded in the presence and absence of various fixed concentrations of D2 (3, 5, 11, 22 or 43 nM) (FIG. 18B and FIG. 7). […] Upon a global fit of the individual dose response curves using a four parameter logistic model, an EC₅₀ for flag-mRANKL WT of 0.6 nM (±0.04 nM) was obtained and for mD2 an A₂ value of 4 nM (±0.5 nM) was calculated, i.e. the concentration of inhibitor required to shift the dose response curve by a factor of 2.

human RANK-Fc [7] = molecular target: T1, human RANK-Fc; assay: SPR single cycle kinetics, hRANK-Fc captured at 20-40 RU, 1:1 fit
Protocol: (§4) Considering the high similarity between human RANKL and murine RANKL (>88%) the murine dimers were also tested for hRANK binding. Binding to hRANK-Fc and mRANK-Fc (both from R&D Systems) was recorded for five consecutive concentrations of murine flag RANKL WT, D1 (mD1) or D2 (mD2) (˜0.3-15 nM) using SPR with a single cycle kinetics based approach. The capture level of mRANK-Fc and hRANK-Fc was low (20-40 RU) in order to ensure 1:1 binding. Both WT and the D1 and D2 dimeric variants bound with high affinity towards the mRANK receptor and to the human RANK receptor (FIG. 16: Table 8).

murine RANK-Fc [8] = molecular target: T2, murine RANK-Fc; assay: SPR single cycle kinetics, mRANK-Fc captured at 20-40 RU, 1:1 fit
Protocol: as §4

murine RANK-Fc [9] = molecular target: T2, murine RANK-Fc; assay: SPR, mRANK-Fc captured at low density on C1 chip, 1:1 Langmuir fit, mean of three experiments
Protocol: SPR measurements were performed using ˜1500-2000 RU of captured mRANK-Fc on the surface of a CM5 sensor chip (FIGS. 15B and C). This is a density that results in a mean ratio of RANKL:RANK of approx 1:3 (52). […] (Table 5, below) In contrast, the ratio of binding of RANKL variants mD1 and mD2 to mRANK-Fc seems hardly to be affected by receptor density (Table 5). The values obtained after injecting 500 nM of the dimeric variants correlate to binding of 1.5 monomeric subunits by mD1 and 1.6 monomeric subunits by mD2.
Kinetic binding parameters were also measured for mD1 and mD2 binding to mRANK-FC in real time using SPR using murine RANKL-WT as a control (FIG. 15; table 8). RANKL dimer binding curves to mRANK-Fc captured at low density on the surface of a C1 sensorchip were recorded using concentrations ranging from 100 pM to 562 nM. At very low receptor density, RANKL proteins bind only one receptor molecule, allowing the data to be fitted to a Langmuir 1:1 interaction model (29). RANKL WT needed a very low density (<20 resonance units (RU)) to come close to a 1:1 ratio (FIG. 3A). […] Maximum binding of 5.5 RU is reached, which is slightly lower than the expected Rₘₐₓ value of 6.8 RU for a 1:1 ratio, but definitely larger than 3.4 RU, the Rₘₐₓ value expected for a binding ratio of 2 molecules of RANK per flag-mRANKL WT trimer. Similar to mRANKL WT, binding of RANKL mD1 or mD2 to mRANK-Fc results in slightly lower Rₘₐₓ values than expected for a 1:1 binding ratio: 24 RU D1 compared to 26 RU, and 20 RU D2 compared to 23 RU (FIG. 15A). These binding ratio's could be reached with mD1 and mD2 at densities of mRANK-Fc of <50 RU. The approximate 1:1 binding of RANKL proteins to mRANK-Fc allows fitting the data to the 1:1 Langmuir binding model.

B2: murine RANKL heterodimeric variant mD1 (mouse Dimer 1) (ligand)
chain 1: EAQPFAHLTINAASIPSGSHKVTLSSWYHDRGWADISNMTLSNGKLRVNQDGFYYLYANISFRHHETSGSVPTDYLQLMVYVVKTSIKIPSSHNLMKGGSTKNWSGNSEFHYYSINVGGFFKLRAGEEISIQVSNPSLLDPDQDATYFGAFKVQDID
chain 2: EAQPFAHLTINAASIPSGSHKVTLSSWYHDRGWAKISNMTLSNGKLRVNQDGYYYLYANICFRHHETSGSVPTDYLQLMVYVVKTSIKIPSSHNLMDGGSTKNWSGNSEFHFYSINVGGYFKLRAGEEISIQVSNPSLLDPDQDATYFGAFKVQDID
notes: range 160-316; Heterodimer of monomer A (His-tagged) and monomer B, co-expressed in E. coli; also called RANKL dimer 1; RANK-L Dimer 1; not shown: hexahistidine-tag fused to monomer A
- IC50 (murine RANK-Fc [3]): 4 nM
- fold faster kon than wild-type murine RANKL (human RANK-Fc [4]): ~5 fold
- IC50 (murine RANK-Fc [5]): 31 nM

B4: murine RANKL heterodimeric variant mD2 (mouse Dimer 2) (ligand)
chain 1: EAQPFAHLVINAASIPSGSHKVTLSSWYHDRGWAKISNMTLSNGKLRVNQDGFYYLYANISFRHHETSGKVPTDYLQLMVYVVKTSIKIPSSHNLMKGGSTKNWSGNSEFHYYSINVGGFFKLRAGEEISIQVSNPSLLDPDQDATYFGAFKVQDID
chain 2: EAQPFAHLVINAASIPSGSHKVTLSSWYHDRGWAKISNMTLSNGKLRVNQDGYYYLYANICFRHHETSGKVPTDYLQLMVYVVKTSIKIPSSHNLMDGGSTKNWSGNSEFHFYSINVGGYFKLRAGEEISIQVSNPSLLDPDQDATYFGAFKVQDID
notes: range 160-316; Heterodimer of monomer A (His-tagged) and monomer B, co-expressed in E. coli; also called RANKL dimer 2; dRANKL D2; not shown: hexahistidine-tag fused to monomer A
- IC50 (murine RANK-Fc [3]): 4 nM
- fold faster kon than wild-type murine RANKL (human RANK-Fc [4]): ~10 fold
- IC50 (murine RANK-Fc [5]): 28 nM

Next, values leading:

- Ka (human RANK-Fc [1]): 9.23e+09 M⁻¹
- Kd (human RANK-Fc [1]): 0.11 nM
- koff (human RANK-Fc [1]): 8.97e-05 s⁻¹
- kon (human RANK-Fc [1]): 827000 M⁻¹ s⁻¹
- EC50 (read off the curve) (murine RANK-Fc [2]): ~0.1 nM
B1: trimeric murine wild-type RANKL (R&D systems) (ligand, mouse, UniProt O35235 158-316, looked up)
chain: KPEAQPFAHLTINAASIPSGSHKVTLSSWYHDRGWAKISNMTLSNGKLRVNQDGFYYLYANICFRHHETSGSVPTDYLQLMVYVVKTSIKIPSSHNLMKGGSTKNWSGNSEFHFYSINVGGFFKLRAGEEISIQVSNPSLLDPDQDATYFGAFKVQDID
notes: Bought soluble trimeric protein; also called murine RANKL wt; mRANKL WT

- EC50 (murine RANK-Fc [6]): 0.6 nM
- Kd (human RANK-Fc [7]): 0.104 nM
- koff (human RANK-Fc [7]): 0.000575 s⁻¹
- kon (human RANK-Fc [7]): 5.63e+06 M⁻¹ s⁻¹
- Kd (murine RANK-Fc [8]): 0.0315 nM
- koff (murine RANK-Fc [8]): 0.000189 s⁻¹
- kon (murine RANK-Fc [8]): 6.14e+06 M⁻¹ s⁻¹
- Ka (murine RANK-Fc [9]): 4.4e+10 M⁻¹
- Kd (murine RANK-Fc [9]): 0.065 nM
- koff (murine RANK-Fc [9]): 0.00034 s⁻¹
- kon (murine RANK-Fc [9]): 5.9e+06 M⁻¹ s⁻¹
B3: murine flagRANKL WT (wild-type mRANKL containing an N-terminal flagtag) (ligand, mouse, UniProt O35235 160-316, looked up)
chain: EAQPFAHLTINAASIPSGSHKVTLSSWYHDRGWAKISNMTLSNGKLRVNQDGFYYLYANICFRHHETSGSVPTDYLQLMVYVVKTSIKIPSSHNLMKGGSTKNWSGNSEFHFYSINVGGFFKLRAGEEISIQVSNPSLLDPDQDATYFGAFKVQDID
notes: Trimeric; also called flag-mRANKL WT; mWT; not shown: N-terminal flagtag

Reference: US20140096274A1 (published 2014)
